Assay [1] deals with FGFR2 on SNU-16 gastric cancer cell line with FGFR2 amplification (UniProt P21802). Nature of the assay: row 'Kd (nM) (FACS)'; FACS on SNU-16 cells.
For the next assay, the target named is FGFR2b alpha IIIb (Homo sapiens, UniProt P21802). As to the kind of experiment: Surface Plasmon Resonance (SPR) binding. Particulars: FGFR2b alpha IIIb antigen. An excerpt:
FIGS. 17A-17C provide a schematic and tabular data related to assessments made to compare the avidity of biparatopic antibodies to that of their parental (bivalent monospecific) antibodies.
Surface Plasmon Resonance (SPR) as known in the art was used to determine the binding affinities of biparatopic antibodies. The SPR-based binding method involves immobilization of a ligand (antibody) on the surface of a sensor chip. The binding partner of interest or an analyte (FGFR2 ECD) flow through the flow channel. Different concentrations of an analyte flow over the ligand, and the interactions of ligand-analyte can be characterized. The SPR signal originates from changes in the refractive index of the […] at the surface of the sensor chip. The increase in mass associated with a binding event causes a proportional increase in the refractive index, which is observed as a change in response-resonance signal. In brief, for the experiments using the antibodies described herein, the SPR assay was carried out by immobilizing antibodies (used as […]) at a concentration ranging from 1-1000 nM and flow-through FGFR2b alpha IIIb antigen (used as […]). The antibody kinetic data for the interaction with FGFR2b alpha IIb antigen were fitted to the 2-state and 1-1 binding models using Biocore software. The mean and standard deviation KD values are derived from at least three independent runs.
Using SPR, the kinetics of 6 monospecific and 13 biparatopic antibodies for binding to a single antigen, FGFR2b alpha IIb, was measured so as to compare avidity of the biparatopic antibodies to their parental antibodies. Without wishing to be bound by theory, it was expected that the biparatopic antibodies would bind to the FGFR2 antigen more tightly than their parental antibodies and that the tighter binding biparatopic antibodies among the antibodies that were assessed would be more efficient in blocking FGFR2 dimerization (FIG. 17A), thereby leading to inhibition or blocking of constitutive FGFR2 signaling and/or oncogenic transformation. […]

Assay [2] concerns cells stably overexpressing FGFR2 (FGFR2IIIb). Nature of the assay: growth of cells stably overexpressing FGFR2 (FGFR2IIIb) (FIG. 16F left). Type of assay: cell-based. An excerpt: FIG. 16A-16F provide schematic illustrations, blots and graphs related to the development of a NANOBIT® assay to measure FGFR2 dimerization. Such an assay is used to screen biparatopic screening for their ability to disrupt FGFR2 dimerization. […] The protein interactions bring the subunits into close proximity to form a functional enzyme that generates a bright, luminescent signal. (FIG. 16B). […] FIG. 16E presents a graph of the results of the NANOBIT® assay using NANOBIT® constructs with or without FGF10 ligand. […] As shown in the graph on the left side of FIG. 16F, certain of the antibodies A-F inhibited the growth of BaF3 cells stably overexpressing FGFR2 (FGFR2IIIb). Antibody D was used in the NANOBIT® assay (graph on the right of FIG. 16F). In the rightmost graph in FIG. 16F, the fold luminescence resulting from FGFR2 WT (wild type) in the assay is represented by the left bar in each set of three bars; the fold luminescence resulting from FGFR2+FGF10 ligand in the assay is represented by the middle bar in each set of three bars; and the fold luminescence resulting from +/−FGF10 ligand difference in the assay is represented by the right bar in each set of three bars shown in FIG. 16F.
Different expression constructs (e.g., up to eight) were made encoding LgBiT and SmBiT fused to the N and C termini of protein:protein pairs. […]

Sequence of FGFR2b alpha IIIb (P21802 22-378 isoform P21802-3): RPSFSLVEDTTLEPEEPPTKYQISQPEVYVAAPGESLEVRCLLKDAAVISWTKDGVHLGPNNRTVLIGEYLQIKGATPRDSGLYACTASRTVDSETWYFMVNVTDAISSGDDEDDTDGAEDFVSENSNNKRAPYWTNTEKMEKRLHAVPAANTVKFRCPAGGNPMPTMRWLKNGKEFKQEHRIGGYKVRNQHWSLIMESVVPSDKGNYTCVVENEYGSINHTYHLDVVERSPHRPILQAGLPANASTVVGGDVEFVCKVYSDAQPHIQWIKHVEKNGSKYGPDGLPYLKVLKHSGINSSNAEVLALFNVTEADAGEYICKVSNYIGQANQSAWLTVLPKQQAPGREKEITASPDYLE

B1: 2B 1.3.12 (antibody, V domains shown)
VH: EVQLVESGGGLVQPGGSLRLSCAASGFPFTSTGISWVRQAPGKGLEWVGRTHLGDGSTNYADSVKGRFTISADTSKNTAYLQMNSLRAEDTAVYYCARTYGIYDTYDMYTEYVMDYWGQGTLVTVSS
VL: DIQMTQSPSSLSASVGDRVTITCRASQDVDTSLAWYKQKPGKAPKLLIYSASFLYSGVPSRFSGSGSGTDFTLTISSLQPEDFATYYCQQSTGHPQTFGQGTKVEIK
notes: the duobody scheme implies IgG1 with K409R or F405L; also called Antibody D; GE
Consider B1, for which the Kd (in general, a measure of binding affinity in units of concentration) was 1.78 nM in assay [1] and 0.99 nM with FGFR2b alpha IIIb. The “growth inhibition of cells stably overexpressing FGFR2 (FGFR2IIIb)” value in assay [2] is “most pronounced effect”.

These data come from patent publication US20230295308A1, “ANTAGONISTIC BIPARATOPIC ANTIBODIES THAT SPECIFICALLY BIND FIBROBLAST GROWTH FACTOR RECEPTOR 2 AND METHODS OF USING SAME” (The Broad Institute, Inc., priority 2020, published 2023).
